# Laboratory results taken from patent publication US9969998B2, “Compositions of adenosine deaminase-2 (ADA2), variants thereof and methods of using same” (Halozyme, Inc., priority 2014, dated 2018).
# Experiments:
# [1] = Kinetic assessment of adenosine deaminase activity (ammonia assay, Michaelis-Menten); type: biochemical; conditions: for kcat: kcat=Vmax/0.0085/60; for kinetics properties compared to WT: pH 7.6 and pH 6.5
# Method in brief: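 Coupled ammonia assay: rHuADA2 WT or variants (1 μg/mL, 17 nM in 2× mix) with adenosine 20 μM–20 mM, α-ketoglutarate, NADPH and GDH, at pH 7.6 or pH 6.5 (PIPES), room temperature. Michaelis-Menten fit gave Km, Vmax, kcat, kcat/Km.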
# [2] = Spectrophotometric adenosine deaminase assay at varying pH (pH optimum); type: biochemical; conditions: for pH optimum (highest deaminase activity): pH 5.5 to 8, 5 mM ADO
# Description: Adenosine deaminase activity of rHuADA2 and variants at varying pH were assessed to determine the pH optimum of each. The adenosine deaminase activity was determined spectrophotometrically by direct measurement of changes in adenosine absorbance. […] During the deamination reaction, the absorbance of ADO decreases while that of INO increases with time. Since the dynamic changes in absorbance make it difficult to monitor activity at a single wavelength, the relative ADO activity was determined as a ratio of the ADO peak to isobestic point (i.e. the wavelength where ADO and INO have the same extinction coefficient). The isobestic point, which is 253 nm, remains unchanged and is concentration independent, so that it is the reference point to correct for volume or intensity discrepancies.
# To construct the standard curve for ADO and INO, a series of solution mixtures in 0.001% Tween-20 containing different concentrations of ADO and INO were prepared. The total concentration of ADO and INO mix was 50 μM, in 1×PBS (10 mM phosphate, 137 mM NaCl, 2.7 mM KCl), pH 7.4. The samples were scanned with the wavelengths between 220 nm and 300 nm to determine the isosbestic point, where all spectra cross.
# For performing the spectrophotometric adenosine deaminase assay of ADA2 and variants, a 2× solution containing 10 mM ADO in 100 mM potassium phosphate buffer (KPB), 0.1% Tween-20 at different pHs (i.e. 5.5, 6, 6.5, 6.75, 7, 7.25, 7.4, 7.75 and 8) were prepared. A separate 2× solution containing 2 μg/mL WT rHuADA2 or variants were prepared in the same 100 mM potassium phosphate buffer (KPB), 0.1% Tween-20 at the respective pH (i.e. 5.5, 6, 6.5, 6.75, 7, 7.25, 7.4, 7.75 and 8). An equal volume of the ADO solution and the ADA2 solution (wildtype or variants) were mixed to initiate reaction. At each time point (i.e. 1, 3, 5, 7, 9, 11, 13 and 15 min), a small aliquot (4 μl) was removed and diluted 50 times by adding to 196 μl 1×PBS, pH 7.4. The diluted samples were further diluted 2 fold (in duplicates) by adding 85 μl samples to 85 μl 1×PBS in a UV-transparent half area plate. The absorbance at 253 nm and 261 nm were measured of each diluted sample.
# Adenosine concentration was determined using the A261/A253 ratio and the standard curve. Adenosine deaminase activity was measured by negative change in ADO concentration per min×100.
# [3] = Heparin binding ELISA (heparin coated microtiter plate); conditions: for Average OD450, heparin binding ELISA: 3 μM protein; for Heparin Binding ELISA Average OD450: single and S265N combination variants (Table 34)
# Method in brief: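 Plates coated with 200 μg/mL heparin in Na2CO3 buffer pH 9.6 overnight at 4° C, then milk-blocked. FLAG-tagged rHuADA2 variants added at 3 μM for 2 h at room temperature. Bound protein detected with HRP-anti-FLAG and TMB, read as OD450.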
Molecule,"Km ([1]; pH 6.5, [E] = 8.5 nM) [mM]","Vmax ([1]; pH 6.5, [E] = 8.5 nM) [µM/min]","kcat ([1]; pH 6.5, [E] = 8.5 nM) [s⁻¹]","Km ([1]; pH 7.6, [E] = 8.5 nM) [mM]","Vmax ([1]; pH 7.6, [E] = 8.5 nM) [µM/min]","kcat ([1]; pH 7.6, [E] = 8.5 nM) [s⁻¹]",kinetics properties compared to WT [1],Adenosine deaminase activity Δ [ADO]/min × (−100) ([2]; pH 5.5),Adenosine deaminase activity Δ [ADO]/min × (−100) ([2]; pH 6),Adenosine deaminase activity Δ [ADO]/min × (−100) ([2]; pH 6.5),Adenosine deaminase activity Δ [ADO]/min × (−100) ([2]; pH 6.75),Adenosine deaminase activity Δ [ADO]/min × (−100) ([2]; pH 7),Adenosine deaminase activity Δ [ADO]/min × (−100) ([2]; pH 7.25),Adenosine deaminase activity Δ [ADO]/min × (−100) ([2]; pH 7.4),Adenosine deaminase activity Δ [ADO]/min × (−100) ([2]; pH 7.75),Adenosine deaminase activity Δ [ADO]/min × (−100) ([2]; pH 8),binding to heparin-coated plates compared to WT ADA2 [3],"Average OD450, heparin binding ELISA ([3]; Set 2)",Heparin Binding ELISA Average OD450 [3],"Average OD450, heparin binding ELISA ([3]; Set 1)",also measured
"R23E: ADA2 variant SEQ ID NO:30 (protein, human ADA2 R20E, mature numbering) IDETRAHLLLKEKMMRLGGELVLNTKEELANERLMTLKIAEMKEAMRTLIFPPSMHFFQAKHLIERSQVFNILRMMPKGAALHLHDIGIVTMDWLVRNVTYRPHCHICFTPRGIMQFRFAHPTPRPSEKCSKWILLEDYRKRVQNVTEFDDSLLRNFTLVTQHPEVIYTNQNVVWSKFETIFFTISGLIHYAPVFRDYVFRSMQEFYEDNVLYMEIRARLLPVYELSGEHHDEEWSVKTYQEVAQKFVETHPEFIGIKIIYSDHRSKDVAVIAESIRMAMGLRIKFPTVVAGFDLVGHEDTGHSLHDYKEALMIPAKDGVKLPYFFHAGETDWQGTSIDRNILDALMLNTTRIGHGFALSKHPAVRTYSWKKDIPIEVCPISNQVLKLVSDLRNHPVATLMATGHPMVISSDDPAMFGAKGLSYDFYEVFMGIGGMKADLRTLKQLAMNSIKYSTLLESEKNTFMEIWKKRWDKFIADVATK",3.29,37.16,72.86,5.06,29.08,57.02,improved kinetics properties compared to WT,22.84,25.64,29.18,29.47,28.53,21.71,19.37,7.41,5.33,attenuated binding to heparin,0.2,0.71,–,–
"K374E: ADA2 variant SEQ ID NO:21 (protein, human ADA2 K371E, mature numbering) IDETRAHLLLKEKMMRLGGRLVLNTKEELANERLMTLKIAEMKEAMRTLIFPPSMHFFQAKHLIERSQVFNILRMMPKGAALHLHDIGIVTMDWLVRNVTYRPHCHICFTPRGIMQFRFAHPTPRPSEKCSKWILLEDYRKRVQNVTEFDDSLLRNFTLVTQHPEVIYTNQNVVWSKFETIFFTISGLIHYAPVFRDYVFRSMQEFYEDNVLYMEIRARLLPVYELSGEHHDEEWSVKTYQEVAQKFVETHPEFIGIKIIYSDHRSKDVAVIAESIRMAMGLRIKFPTVVAGFDLVGHEDTGHSLHDYKEALMIPAKDGVKLPYFFHAGETDWQGTSIDRNILDALMLNTTRIGHGFALSKHPAVRTYSWEKDIPIEVCPISNQVLKLVSDLRNHPVATLMATGHPMVISSDDPAMFGAKGLSYDFYEVFMGIGGMKADLRTLKQLAMNSIKYSTLLESEKNTFMEIWKKRWDKFIADVATK",3.18,41.93,82.22,4.77,35.13,68.88,improved kinetics properties compared to WT,15.76,19.15,27.09,25.72,24.63,21.88,18.32,5.98,4.25,attenuated binding to heparin,–,0.03,0.11,–
"WT ADA2: wild type recombinant human adenosine deaminase 2 with FLAG tag, mature ADA2 SEQ ID NO:5 (protein, listed as Homo sapiens, FLAG tag; ADA2 mature protein) IDETRAHLLLKEKMMRLGGRLVLNTKEELANERLMTLKIAEMKEAMRTLIFPPSMHFFQAKHLIERSQVFNILRMMPKGAALHLHDIGIVTMDWLVRNVTYRPHCHICFTPRGIMQFRFAHPTPRPSEKCSKWILLEDYRKRVQNVTEFDDSLLRNFTLVTQHPEVIYTNQNVVWSKFETIFFTISGLIHYAPVFRDYVFRSMQEFYEDNVLYMEIRARLLPVYELSGEHHDEEWSVKTYQEVAQKFVETHPEFIGIKIIYSDHRSKDVAVIAESIRMAMGLRIKFPTVVAGFDLVGHEDTGHSLHDYKEALMIPAKDGVKLPYFFHAGETDWQGTSIDRNILDALMLNTTRIGHGFALSKHPAVRTYSWKKDIPIEVCPISNQVLKLVSDLRNHPVATLMATGHPMVISSDDPAMFGAKGLSYDFYEVFMGIGGMKADLRTLKQLAMNSIKYSTLLESEKNTFMEIWKKRWDKFIADVATK",3.66,31.81,62.37,5.25,26.09,51.16,–,21.11,22.06,33.77,29.76,28.70,24.47,21.77,6.65,3.58,–,0.55,2.31,0.49,Km ([1]; pH 6.5): 3.66 mM; Km ([1]; pH 7.6): 5.25 mM; pH optimum (highest deaminase activity) [2]: approximately 6.5
"S265N: ADA2 variant SEQ ID NO:54 (protein, human ADA2 S262N, mature numbering) IDETRAHLLLKEKMMRLGGRLVLNTKEELANERLMTLKIAEMKEAMRTLIFPPSMHFFQAKHLIERSQVFNILRMMPKGAALHLHDIGIVTMDWLVRNVTYRPHCHICFTPRGIMQFRFAHPTPRPSEKCSKWILLEDYRKRVQNVTEFDDSLLRNFTLVTQHPEVIYTNQNVVWSKFETIFFTISGLIHYAPVFRDYVFRSMQEFYEDNVLYMEIRARLLPVYELSGEHHDEEWSVKTYQEVAQKFVETHPEFIGIKIIYNDHRSKDVAVIAESIRMAMGLRIKFPTVVAGFDLVGHEDTGHSLHDYKEALMIPAKDGVKLPYFFHAGETDWQGTSIDRNILDALMLNTTRIGHGFALSKHPAVRTYSWKKDIPIEVCPISNQVLKLVSDLRNHPVATLMATGHPMVISSDDPAMFGAKGLSYDFYEVFMGIGGMKADLRTLKQLAMNSIKYSTLLESEKNTFMEIWKKRWDKFIADVATK",1.49,45.79,89.78,3.02,80.49,157.82,–,24.61,31.59,41.30,44.46,45.16,50.99,45.81,25.16,3.70,attenuated binding to heparin coated plates,–,0.88,–,Km ([1]; pH 6.5): 1.49 mM; Km ([1]; pH 7.6): 3.02 mM; pH optimum (highest deaminase activity) [2]: 7.25
